The results in this text go back to article PMC5784979, “Direct comparison of the four aldehyde oxidase enzymes present in mouse gives insight into their substrate specificities” (PLoS ONE, 2018).

Common to all, as to assay: purified protein
Holding throughout (details): 100 μM DCPIP as electron acceptor, 50 mM Tris-HCl, 1 mM EDTA, pH 8.0, 37°C, corrected to 100% Mo saturation

Substrate in series [1]: c1ccc2c(c1)cnc1ccccc12
Substrate in series [2]: CC=O
The class given is biochemical, Mus musculus.

Substrate in series [3]: COc1ccccc1C=O
The class given is biochemical, Mus musculus.

Substrate in series [4]: c1ncc2[nH]cnc2n1
The class given is biochemical, Mus musculus.

B1: mAOX1 (Mus musculus) (protein)
chain: MDPIQLLFYVNGQKVVEKNVDPEMMLLPYLRKNLRLTGTKYGCGGGGCGACTVMISRYNPSTKAIRHHPVNACLTPICSLHGTAVTTVEGLGNTRTRLHPIQERIAKCHGTQCGFCTPGMVMSMYALLRNHPEPTLDQLTDALGGNLCRCTGYRPIIDACKTFCKASACCQSKENGVCCLDQEINGLAESQEEDKTSPELFSEEEFLPLDPTQELIFPPELMRIAEKQPPKTRVFYGERVTWISPVTLKELVEAKFKYPQAPIVMGYTSVGPEVKFKGVFHPIIISPDRIEELGVISQARDGLTLGAGLSLDQVKDILADIVQKLPEEKTQTYRALLKHLRTLAGSQIRNMASLGGHIVSRHLDSDLNPLLAVGNCTLNLLSKDGERRIPLSEEFLRKCPEADLKPQEVLVSVNIPWSRKWEFVSAFRQAQRQQNALAIVNSGMRVLFREGGGVIEELSILYGGVGSTIISAKNSCQRLIGRPWNEGMLDTRCRLVLDEVTLAASAPGGKVEFKRTLIISFLFKFYLEVSQGLKREDPGHSPSLAGNHESALDDLHSKHPWRTLTHQNVDPAQLPQDPIGRPIMHLSGIKHATGEAIYCDDMPAVDRELFLTFVTSSRAHAKIVSIDLSEALSLPGVVDIITADHLQEANTFGTETFLATDEVHCVGHLVCAVIADSETRAKQAAKQVKVVYQDLAPLILTIEEAIQHKSFFKSERKLECGNVDEAFKIVDQILEGEIHIGGQEHFYMETQSMLVVPKGEDGEIDIYVSTQFPKYIQDIVAATLKLSANKVMCHVRRVGGAFGGKVGKTSILAAITAFAASKHGRAVRCILERGEDMLITGGRHPYLGKYKAGFMNEGRILALDVEHYCNGGCSLDESLWVIEMGLLKLDNAYKFPNLRCRGWACRTNLPSNTALRGFGFPQAGLVTEACITEVAIKCGLSPEQVRTINMYKHVDTTHYKQEFSAKALSECWRECMAKCSYFERKAAIGKFNAENSWKKRGMAVIPLKFPVGIGSVAMGQAAALVHIYLDGSALVSHGGIEMGQGVHTKMIQVVSRELRMPMSSVHLRGTSTETVPNTNASGGSVVADLNGLAVKDACQTLLKRLEPIISKNPQGTWKDWAQTAFDQSISLSAVGYFRGYESNIDWEKGEGHPFEYFVFGAACSEVEINCLTGDHKNIRTNIVMDVGHSINPALDIGQVEGAFIQGMGLYTIEELSYSPQGTLYSRGPNQYKIPAICDIPTEMHISFLPPSEHSNTLYSSKGLGESGVFLGCSVFFAIHDAVKAARQERGISGPWKLNSPLTPEKIRMACEDKFTKMIPRDEPGSYVPCNIPV
notes: recombinant from E. coli TP1000 (codon-optimized plasmid pMAOX1co), Ni-NTA and Superdex 200 purified, chemically sulfurated, dimer (300 kDa)
In the case of B1, the Km in series [1] was determined as 0.0025 ± 0.0011 mM; in series [2], 18 mM; in series [3] it was 0.0066 ± 0.0015 mM; in series [4] it was 9.028 ± 0.971 mM. Further, the kcat in series [1] turned out to be 2.013 ± 0.277 s⁻¹; in series [3], 6.885 ± 0.362 s⁻¹; in series [4], 7.147 ± 0.29 s⁻¹.

Usually Km stands for the concentration of substrate that gives half-maximal velocity. What is called kcat is the maximal rate divided by the concentration of active sites.
